Patent US20240043504A1 (published 2024)
Several values for one entry are separate records, joined by “and”; a condition that tells them apart may be missing. Equal values may be shown once.

biological target: receptor binding domain (RBD) portion of the SARS-CoV-2 Spike protein (amino acids Arg319-Phe541) ex (SARS-CoV-2); assay: not given

Row | Binder | IC50
1 | mAb10915 (antibody, V domains shown) VH: EVQLVESGGGLVQPGGSLRLSCAASGFTVSSNYMNWVRQAPGKGLEWVSVIYSGGSTFYADSVKGRFTISRHNSKNTLYLQMNSLRPEDTAVYYCARDLGGYFDYWGQGTLVTVSS VL: not shown | 0.321 nM
2 | mAb10920 (antibody, V domains shown) VH: QVQLVESGGGVVQPGRSLRLSCAASGFTFSYYGMHWVRQAPGKGLEWVAVIWYDGSNKFYADSVKGRFTISRDNSKNTLYLQMNSLRAEDTAVYYCAAARPGYYYGMDVWGQGTTVTVSS VL: DIQMTQSPSSLSASVGDRVTITCRASQGISNYLAWFQQKPGKAPNSLIYAASSLQRGVPSKFSGSGSGTDFTLTISSLQPEDFATYYCQQYNSYPRTFGQGTKVEIKR | 0.338 nM and 0.139 nM
3 | mAb10913 (antibody, V domains shown) VH: EVQLVESGGGLVQPGGSLRLSCAASGFTFRNYEMNWVRQAPGKGLEWVSYITSSGSTMYYADSVKGRFTISRDNAKNSLYLQMNSLRAEDTAVYYCARDGFYYYYAMDVWGQGTTVTVSS VL: QSVLTQPPSVSAAPGQKVTISCSGSSSNIGNNYVSWYQQLPGTAPKLLIYDNNKRPSGIPDRFSGSKSGTSATLGITGLQTGDEADYYCGTWDSSLSVGRVFGTGTKVTVLG [mAb10913, listing 1 of 2 here] | 0.217 nM
4 | mAb10923 (antibody, V domains shown) VH: QVQLVQSGAEVKKPGASVKVSCKASGYTFINYYIHWVRQAPGQGLEWMGWINPNSGGTNYAQKFQGRVTMTRDTSISTAYMELSRLRSDDTAVYYCAIITIFGVVTWFDPWGQGTLVTVSS VL: not shown | 0.149 nM and 0.184 nM
5 | mAb10932 (antibody, V domains shown) VH: EVQLVESGGGLVQSGGSLRLSCAASGLTVSSNYMSWVRQAPGKGLEWVSVIYSGGSTFYSDSVKGRFTISRHNSKNTLYLQMNSLRAEDTAVYYCARARGDAFDIWGQGTMVTVSS VL: not shown | 0.373 nM
6 | mAb10939 (antibody, V domains shown) VH: EVQLVESGGGLVQPGGSLRLSCAASGLTVSSNYMNWVRQVPGKGLEWVSVIYSGGSKFYVDSVKGRFTISRHNSKNTLYLQMNSLRPEDTAVYYCTRDAQYYGMDVWGQGTTVTVSS VL: DIQMTQSPSSLSASVGDRVTITCRASQSISTYLHWYQQKPGEAPKLLIYAASSLQSGVPSRFSGSGSGTDFTLTISSLQPEDFATYYCQQSYSTPPEIFGQGTKLEIKR | 0.175 nM and 0.263 nM
7 | mAb10935 (antibody, V domains shown) VH: EVQLVESGGGLVQPGGSLRLSCAASGFTVSSNYMSWVRQAPGKGLEWVSLIYSGGSTYYADSVKGRFTISRHNSKNTLYLQMNSLRSEDTAVYYCARVPLGDYYYGMDVWGQGTTVTVSS VL: DIQMTQSPSSLSASVGDRVTITCQASQDINKYLNWYQQKPGKAPKLLIYDASNLETGVPSRFSGSGSGTDFTFTISSLQPEDIATYYCQQSDNLPLTFGGGTKVEIKR | 0.102 nM and 0.0694 nM
8 | mAb10954 (antibody, V domains shown) VH: EVQLVESGGGLVQPGGSLRLSCAASGITVSSNYMSWVRQAPGKGLEWVSLIYSGGSTYYADSVKGRFTISRDNSKNTLYLQMNSLRVEDTAVYYCARDHGMAAAGYNYWGQGTLVTVSS VL: DIQMTQSPSSLSASVGDRVTITCQASQDINKYLNWYQQKPGKAPKLLIYDASNLETGVPSRFSGSGSGTDFTFTINSLQPEDFATYFCQQYDNLPPAFGQGTKVEIKR | 0.0711 nM
9 | mAb10938 (antibody, V domains shown) VH: EVQLVESGGGLVQPGGSLRLSCAVSGFTVSSNYMSWVRQAPGKGLEWVSLIYSGGSTFYADSVKGRFTISRHNSKNTLYLQMNSLRAEDTAVYYCAREGGYSYDYNYWGQGTLVTVSS VL: DIQMTQSPSSLSASVGDRVTITCQASQDIRNYLNWYQQKPGKAPKLLIYDASNLETGVPSRFSGIGSGTDFTFTISSLQPEDIATYYCQQYDNLPITFGQGTRLEIKR | 0.275 nM
10 | mAb10955 (antibody, V domains shown) VH: EVQLVESGGGLVQPGGSLRVSCAASGFTVSRNYMSWVRQAPGKGLEWVSVIYSGGSTFYADSVKGRFTISRDNSKNTLYLQMNSLRAEDTAIYYCARYIPRFDPWGQGTLVTVSS VL: DIQMTQSPSSLSASVGDRVTITCQASQDISNYLNWFQQKPGRAPKLLIYDASNLETGVPSRFSGSGSGTDFTFTISSLQPEDIATYYCQQYDNLPITFGQGTRLEIKR | 0.141 nM
11 | mAb10930 (antibody, V domains shown) VH: EVQLVESGGGLVQPGRSLRLSCAASGFTFDDYAMYWVRQAPGKGLEWVSGISWNSGSIGYADSVKGRFTISRDNAKNSLYLQMNSLRAADTALYYCAKDKDWNSRGYYYYGMDVWGQGTTVTVSS VL: not shown | 0.282 nM
12 | mAb10914 (antibody, V domains shown) VH: EVQLVESGGGLVQPGGSLRLSCAASGLIVSRNYMIWVRQAPGKGLEWVSVIYSGGSTFYADSVKGRFTISRHNSKNTLYLQMNSLRAEDTAVYYCARDLGTGGMDVWGQGTTVTVSS VL: DIQLTQSPSFLSASVGDRVTITCWASQGISSYLAWYQQKPGKAPKLLIYAASTLQSGVPSRFSGSGSGTEFTLTISSLQPEDFATYYCQQLNSYPLTFGGGTKVEIKR [mAb10914, listing 1 of 2 here] | 0.98 nM
13 | mAb10956 (antibody, V domains shown) VH: EVQLVESGGGLVQPGGSLRLSCAASGLTVSSNYMSWVRQAPGKGLEWVSVIYSGGSTFYADSVKGRFTISRDNSKNTLYLQMNSLRAEDTAVYYCARDLIKYGMDVWGQGTTVTVSS VL: not shown | 0.185 nM
14 | mAb10921 (antibody, V domains shown) VH: EVQLVESGGGLVQPGGSLRLSCAASGITVSSNYMSWVRQAPGKGLEWVSVIYSGGSTFYADSVKGRFTISRHNSKNTLYLQMNSLRAEDTAVYYCARERNFDAFDIWGQGTMVTVSS VL: DIQMTQSPSSVSASVGDRVTITCRASQGISSWLAWYQQKPGKAPKLLIYAASSLQSGVPSRFSGSGSGTDFTLTISSLQPEDFATYYCQQANSFPLFTFGPGTKVDIKR | 0.433 nM and 0.507 nM
15 | mAb10936 (antibody, V domains shown) VH: QVQLVESGGGVVQPGRSLRLSCAASGFTFRNYGMHWVRQAPGKGLEWVSVIWYDGSNRYYADSVKGRFTISRDTSKNTLYLQMNSLRAEDTAVYYCARDPPITGTTGGDAFDIWGQGTMVTVSS VL: not shown | 0.0875 nM and 0.071 nM
16 | mAb10937 (antibody, V domains shown) VH: QITLKESGPTLVKPTQTLTLTCTFSGFSLSTNVVGVGWIRQPPGKALEWLALIYWNDDKRYSPSLKSRLTITKDTSKNQVVLTMTNMDPVDTATYYCAHGPTGDYFDYWGQGTLVTVSS VL: not shown | 0.0649 nM

biological target: SARS-CoV-2 RBD-hFc (SARS-CoV-2); assay: Luminex beads

Row | Binder | binding result
17 | mAb11006 (antibody, V domains shown) VH: EVQLVESGGGLVQPGGSLRLSCAASGFIVSRNYMSWVRQAPGKGLEWVSVIYSGGSTFYADSVKGRFTISRHNSKNTLYLQMNSLKAEDTAVYYCARELRGYFDYWGQGTLVTVSS VL: DIQLTQSPSFLSASVGDRVTITCWASQGISSYLAWYQQKPGKAPKLLIYAASTLQSGVPSRFSGSGSGTEFTLTISSLQPEDFATYYCQLLNSYPYTFGQGTKLEIK | binds
18 | mAb11008 (antibody, V domains shown) VH: EVQLVESGGGLVQPGGSLRLSCAASGFTVSSNYMTWVRQAPGKGLEWVSVIYSGGSTFYADSVKGRFTISRHNSENTLYLQMNSLRAEDTAVYYCARDLAAAGTDYWGQGALVTVSS VL: DIQLTQSPSFLSASVGDRVTITCWASQGISSYLAWYQQKPGKAPKLLIYAASTLQSGVPSRFSGSGSGTEFTLTISSLQPDDFATYYCQHLNSYLYTFGQGTKLEIK | binds
19 | mAb11002 (antibody, V domains shown) VH: EVQLVESGGGLVQPGGSLRLSCAASGFTVSSNYMSWVRQAPGKGLEWVSVIYSGGSTFYADSVKGRFTISRHNSKNTLYLQMNSLRAEDTAVYYCAREGYGMDVWGQGTTVTVSS VL: not shown | binds
20 | mAb10998 (antibody, V domains shown) VH: EVQLVESGGGLVHPGGSLRLSCAASGLTVSSNYMSWVRQAPGKGLEWVSVIYSGGSTYYADSVKGRFTISRHNSKNTLFLQMNSLRAEDTAVYYCARDRPITGTTLDVWGQGTTVTVSS VL: DIQMTQSPSSLFASVGDRVTITCRASQSISSYLNWYQQKPGKAPKLLIYAASSLQSGVPSRFSGSGSGTDFTLTISSLQPEDFAFYYCQQTYSTPPITFGQGTRLEIK | binds
21 | mAb10913 (antibody, V domains shown) VH: EVQLVESGGGLVQPGGSLRLSCAASGFTFRNYEMNWVRQAPGKGLEWVSYITSSGSTMYYADSVKGRFTISRDNAKNSLYLQMNSLRAEDTAVYYCARDGFYYYYAMDVWGQGTTVTVSS VL: QSVLTQPPSVSAAPGQKVTISCSGSSSNIGNNYVSWYQQLPGTAPKLLIYDNNKRPSGIPDRFSGSKSGTSATLGITGLQTGDEADYYCGTWDSSLSVGRVFGTGTKVTVLG [mAb10913, listing 2 of 2 here] | binds
22 | mAb11004 (antibody, V domains shown) VH: QVQLVESGGGVVQPGRSLRLSCVASGFTFSIYGMDWVRQAPGKGLEWVAVISYDGSNKYYADSVKGRFTISRDNSKNTLYLQMNSLRPEDTAVYYCAKDREAAADAFDIWGQGTMVTVSS VL: DIQMTQSPSSVSASVGDRVTITCRASQGISSWLAWYQQKPGKAPKLLIYAASSLHSGVPSRFSGSGSGTDFTLTISSLQPEDFATYYCQQANSFRLTFGGGTKVEIK | binds
23 | mAb11010 (antibody, V domains shown) VH: QVQLVESGGGVVQPGRSLRLSCAASGFTFSSYGMHWVRQAPGKGLEWVAVISYDGSYKYYADSVKGRFTISRDNSKNTLYLQMNSLRAEDTAVYYCAIDGGTVTTIFDYWGQGTLVTVSS VL: not shown | binds
24 | mAb10957 (antibody, V domains shown) VH: EVQLVESGGGLVQPGGSLRLSCAASGVTVSSNYMSWVRQAPGKGLEWVSVIYSGGSTFYADSVKGRFTISRDNSKNTLFLQMNSLRIEDTAVYYCARDLGPYGMDVWGQGTTVTVSS VL: DIQLTQSPSFLSASVGDRVTITCRASQGISSYLAWYQQKPGKAPKLLIYAASTLQSGVPSRFSGSGSGTQFILTISSLQPEDFATYYCQQLNSYPGFTFGPGTKVDIKR | binds
25 | mAb10914 (antibody, V domains shown) VH: EVQLVESGGGLVQPGGSLRLSCAASGLIVSRNYMIWVRQAPGKGLEWVSVIYSGGSTFYADSVKGRFTISRHNSKNTLYLQMNSLRAEDTAVYYCARDLGTGGMDVWGQGTTVTVSS VL: DIQLTQSPSFLSASVGDRVTITCWASQGISSYLAWYQQKPGKAPKLLIYAASTLQSGVPSRFSGSGSGTEFTLTISSLQPEDFATYYCQQLNSYPLTFGGGTKVEIKR [mAb10914, listing 2 of 2 here] | binds
